# Data as given in patent US20060183159A1, “Method for engineering a protein by in vitro coevolution” (priority 2005, published 2006).
# Entries after “also recorded” stand apart in the source; their conditions may differ.
# Assays:
# [1] = tested on: progesterone; experiment: Yeast two-hybrid based cell growth assay, response to progesterone; settings: in yeast; saturating ligand concentration 10^−5 M
# Procedure: (§1) A yeast two-hybrid based cell growth assay was used to quantify the ligand activity of the wild-type and mutant hERαLBD in 96-well plates (Chen, et al. (2004) supra). Briefly, yeast cells harboring the plasmid containing the target hERαLBD and plasmid pGAD424 SRC-1 were grown to saturation (OD600 4-5) in 2-3 mL minimal medium lacking tryptophan and leucine, and then diluted to OD600 0.002 using minimal medium lacking tryptophan, leucine and histidine. Each well contained 200 μL diluted yeast cells and 0.2 μL of specified ligand dissolved in 100% ethanol (E2, testosterone, and progesterone) or DMSO (corticosterone). The 96-well plates were incubated at 30° C. for 24 hours and the cell density was measured at 600 nm using a SPECTRAMAX® plate reader (Molecular Devices, Sunnyvale, Calif.).
# [2] = tested on: corticosterone; experiment: Yeast two-hybrid based cell growth assay, response to corticosterone; settings: in yeast; corticosterone 10^−4 M, 24 hours (up to four days at 30° C.)
# Procedure: as §1
# [3] = Competitive binding (RBA) with 2 nM [3H]-E2, testosterone
# [4] = Scatchard analysis of E2 binding to wild-type and mutant hERαLBD proteins; settings: n = 2-3, error = range (n = 2) or S.E. (n > 2)
# [5] = Competitive binding (RBA) with 2 nM [3H]-E2, progesterone
# [6] = Competitive binding (RBA) with 2 nM [3H]-E2, corticosterone
# [7] = RBA = EC50^E2/EC50^ligand × 100, 2 nM [3H]-E2
molecule,measurement,setting,value
"Pg10-1: hERαLBD variant with Glu353Gln, Gly390Asp, His524Asn, Leu536His, Thr585Ser (SEQ ID NOs:11 and 12) (protein) MTMTLHTKASGMALLHQIQGNELEPLNRPQLKIPLERPLGEVYLDSSKPAVYNYPEGAAYEFNAAAAANAQVYGQTGLPYGPGSEAAAFGSNGLGGFPPLNSVSPSPLMLLHPPPQLSPFLQPHGQQVPYYLENEPSGYTVREAGPPAFYRPNSDNRRQGGRERLASTNDKGSMAMESAKETRYCAVCNDYASGYHYGVWSCEGCKAFFKRSIQGHNDYMCPATNQCTIDKNRRKSCQACRLRKCYEVGMMKGGIRKDRRGGRMLKHKRQRDDGEGRGEVGSAGDMRAANLWPSPLMIKRSKKNSLALSLTADQMVSALLDAEPPILYSEYDPTRPFSEASMMGLLTNLADRQLVHMINWAKRVPGFVDLTLHDQVHLLECAWLEILMIDLVWRSMEHPGKLLFAPNLLLDRNQGKCVEGMVEIFDMLLATSSRFRMMNLQGEEFVCLKSIILLNSGVYTFLSSTLKSLEEKDHIHRVLDKITDTLIHLMAKAGLTLQQQHQRLAQLLLILSHIRHMSNKGMENLYSMKCKNVVPHYDLLLEMLDAHRLHAPTSRGGASVEETDQSHLATAGSTSSHSLQKYYISGEAEGFPATV",response to progesterone,[1],responses to progesterone at nanomolar concentrations
same,response to corticosterone,[2],significant responses to corticosterone; also recorded: responded to corticosterone at submillimolar concentrations
same,RBA T (testosterone),[3]; [7],0.21 ± 0.06 (3)
same,Kd,"[3]; calculated with Kd^ligand = (Kd^E2/RBA) × 100, read-out: Kd T (testosterone)",388 nM
same,Kd,[4],0.81 ± 0.23 nM
same,RBA Pg (progesterone),[5]; [7],0.679 ± 0.021 (3)
same,Kd,"[5]; calculated with Kd^ligand = (Kd^E2/RBA) × 100, read-out: Kd Pg (progesterone)",119 nM
same,RBA Cs (corticosterone),[6]; [7],0.008 ± 0.001 (3)
same,Kd,"[6]; calculated with Kd^ligand = (Kd^E2/RBA) × 100, read-out: Kd Cs (corticosterone)",10.3 µM
